Data set [1] deals with the molecule itself. Kind of data set: AUC; sedimentation velocity, 0.5 mg/ml, 20 °C, 40,000 rpm, 50 mM HEPES pH 8.0, 0.3 M NaCl, no metal added.
Data set [2] deals with the molecule itself. In words: SEC-MALS; 100 μl samples at 3 mg/ml, Superdex S200 Increase 10/300 GL, 50 mM HEPES pH 8.0, 0.3 M NaCl, no metal added.
Data set [3] deals with the molecule itself. In words: crystal structure; 0.1 M HEPES pH 6.5, 15% PEG 3350, 0.15 M (NH4)2SO4; two hexamers in the asymmetric unit.
Data set [4] concerns the molecule itself. Kind of data set: SEC; in the presence of 100 mM EDTA. (In gel filtration, larger molecules generally elute earlier.)
Data set [5] deals with the molecule itself. Kind of data set: AUC; sedimentation velocity, 0.5 mg/ml, 20 °C, 50 mM HEPES pH 8.0, 0.3 M NaCl with 50 μM MnCl2.

Numbering of substitutions follows the chain as printed. Names and notes keep the numbering of the source.

B1: Plasmodium falciparum M17 aminopeptidase PfA-M17 (residues 84-605), wild type (enzyme, UniProt Q8IL11 84-605, looked up)
chain: MASEVPQVVSLDPTSIPIEYNTPIHDIKVQVYDIKGGCNVEEGLTIFLVNNPGKENGPVKISSKVNDKNVSEFLKDENMEKFNVKLGTSKHFYMFNDNKNSVAVGYVGCGSVADLSEADMKRVVLSLVTMLHDNKLSKLTVVFEINVDKNLFRFFLETLFYEYMTDERFKSTDKNVNMEYIKHLGVYINNADTYKEEVEKARVYYFGTYYASQLIAAPSNYCNPVSLSNAAVELAQKLNLEYKILGVKELEELKMGAYLSVGKGSMYPNKFIHLTYKSKGDVKKKIALVGKGITFDSGGYNLKAAPGSMIDLMKFDMSGCAAVLGCAYCVGTLKPENVEIHFLSAVCENMVSKNSYRPGDIITASNGKTIEVGNTDAEGRLTLADALVYAEKLGVDYIVDIATLTGAMLYSLGTSYAGVFGNNEELINKILNSSKTSNEPVWWLPIINEYRATLNSKYADINNISSSVKASSIVASLFLKEFVQNTAWAHIDIAGVSWNFKARKPKGFGVRLLTEFVLNDAL
notes: M17 leucyl aminopeptidase of Plasmodium falciparum, residues 84-605; residues 1-83 (asparagine-rich low complexity region) omitted; In solution a metal-dependent equilibrium of monomer, dimer, tetramer and hexamer; also called PfLAP; PfA-M17 WT; source: E. coli BL21 DE3, purified (Ni-NTA, SEC)
As usually defined, the stoichiometry N is a count of units in the complex or per binding partner. Consider B1, for which the “stoichiometry N” value in data set [1] amounted to 2; in data set [2], 6.

B2: PfA-M17 (D379A + E461L) (enzyme)
chain: B1 chain with D296A, E378L
notes: also called PfA-M17(AL); PfA-M17 (AL); source: E. coli BL21 DE3, purified (Ni-NTA, SEC)
Regarding B2, the binding result in data set [1] is listed as “binds”.

B3: Pv-M17Δ125-151 (enzyme)
chain: MATTVPQVVSLDPTTIPIDYHTPIDDLSIEVKDISAEACPADEGLIVFLLNSQIKINSSVKDNTINEFLKEGNMENFTGKLGTSKSFYIANDQKKYVSLAYVGCGPANEETELEIRKVAYALVTLLHDSKHKKVSIIFEIKIEEALFRFFLEHLFYEYVTDERFKSADKSTETDFIKNLSLHIANADAYKGQIDKARVYFYGTYYAAQLIAAPSNYCNPVSLSNAAVELAQKVNLECKILDVKELEELKMGAYLSVGKGSMYPNKFIHLTYKGAQTGASQNEKKKIALIGKGITFDSGGYNLKAAPGSMIDLMKFDMSGCAAVLGCAYCIGTIKPDNVEVHFLSAVCENMVSKNSYRPGDIITASNGKTIEVGNTDAEGRLTLADALVYAEKLGVDYIVDIATLTGAMLYSLGTSYAGVFGNNDQLINKILSSSKTSNEPVWWLPIINEYRSSLNSKYADLNNISSSVKASSVVASLFLKEFIENTPWAHIDIAGVSWNFKARKPKGFGVRLLTEFVLNDAV
notes: also called Pv-M17 N-terminal loop deletion mutant; source: E. coli BL21 DE3, purified (Ni-NTA, SEC)
With B3, in data set [3], the “stoichiometry N” value came to 6.

B4: Plasmodium vivax M17 aminopeptidase Pv-M17 (residues 73-621), wild type (enzyme, UniProt A5K3U9 73-621, looked up)
chain: MATTVPQVVSLDPTTIPIDYHTPIDDLSIEVKDISAEACPADEGLIVFLLNSAPKHSSSGGSGGNGGSAGSSGNGEGGAQIKINSSVKDNTINEFLKEGNMENFTGKLGTSKSFYIANDQKKYVSLAYVGCGPANEETELEIRKVAYALVTLLHDSKHKKVSIIFEIKIEEALFRFFLEHLFYEYVTDERFKSADKSTETDFIKNLSLHIANADAYKGQIDKARVYFYGTYYAAQLIAAPSNYCNPVSLSNAAVELAQKVNLECKILDVKELEELKMGAYLSVGKGSMYPNKFIHLTYKGAQTGASQNEKKKIALIGKGITFDSGGYNLKAAPGSMIDLMKFDMSGCAAVLGCAYCIGTIKPDNVEVHFLSAVCENMVSKNSYRPGDIITASNGKTIEVGNTDAEGRLTLADALVYAEKLGVDYIVDIATLTGAMLYSLGTSYAGVFGNNDQLINKILSSSKTSNEPVWWLPIINEYRSSLNSKYADLNNISSSVKASSVVASLFLKEFIENTPWAHIDIAGVSWNFKARKPKGFGVRLLTEFVLNDAV
notes: M17 leucyl aminopeptidase of Plasmodium vivax, residues 73-621; N-terminal truncation of 72 residues; it is residues 73-621; Synthetic gene (DNA 2.0) in pJ404; also called PvLAP; Pv-M17 WT; source: E. coli BL21 DE3, purified (Ni-NTA, SEC)
Turning to B4, the “stoichiometry N” value in data set [4] is 4; in data set [5] it was 6; in data set [2], 2.

B5: Pv-M17 (D395A and E477L) (enzyme)
chain: B4 chain with D323A, E405L
notes: also called Pv-M17(AL); Pv-M17 (AL); source: E. coli BL21 DE3, purified (Ni-NTA, SEC)
Take B5: in data set [1], the binding result was “binds”.

These data come from PMC7948507, “Active site metals mediate an oligomeric equilibrium in Plasmodium M17 aminopeptidases” (The Journal of Biological Chemistry, 2020).
